Tests used:
[1] = target: GST-Cdc42 constitutively active (CA/Q61L), preloaded with GTPγS (UniProt P60953); assay: pull-down; Glutathione-Sepharose beads coated with GST alone or GST-GTPase fusions pre-loaded with GDP (DN) or GTPγS (CA), incubated with lysates of HEK293T cells expressing GFP-CRN7 WT or CRIB mutants; blot with GFP mAb K3-184-2 or anti-N-WASP; ImageJ quantification, input set at 100%
[2] = target: GST-Cdc42 dominant negative (DN/T17N), preloaded with GDP (UniProt P60953); assay: GST pull-down, western blot quantified with ImageJ; details: GST-Cdc42 DN on Glutathione-Sepharose beads pre-loaded with GDP; lysates from HEK293T cells; input set at 100%; 3 independent experiments; parent: est. 60; read off a plot
GST-Cdc42 dominant negative (DN/T17N), preloaded with GDP, sequence (P60953 whole entry T17N): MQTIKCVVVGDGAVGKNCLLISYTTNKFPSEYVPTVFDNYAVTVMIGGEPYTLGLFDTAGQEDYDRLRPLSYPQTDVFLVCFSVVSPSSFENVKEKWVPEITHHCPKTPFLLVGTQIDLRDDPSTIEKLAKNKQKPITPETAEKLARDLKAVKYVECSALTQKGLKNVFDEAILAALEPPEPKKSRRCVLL

[3] = target: GST-Cdc42 constitutively active (CA/Q61L), preloaded with GTPγS (UniProt P60953); assay: GST pull-down, western blot quantified with ImageJ; details: GST-Cdc42 CA on Glutathione-Sepharose beads pre-loaded with GTPγS; lysates from HEK293T cells; input set at 100%; 3 independent experiments; parent: est. 19; read off a plot

GST-Cdc42 constitutively active (CA/Q61L), preloaded with GTPγS, sequence (P60953 whole entry Q61L, the tested form may be a part): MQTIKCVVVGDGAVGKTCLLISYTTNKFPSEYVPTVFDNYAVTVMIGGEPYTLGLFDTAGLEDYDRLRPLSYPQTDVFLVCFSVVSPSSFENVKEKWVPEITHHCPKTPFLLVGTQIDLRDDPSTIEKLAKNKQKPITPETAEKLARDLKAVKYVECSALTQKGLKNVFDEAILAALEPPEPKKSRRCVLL
GFP-CRN7 WT (human Coronin7, full length, GFP on its N-terminus) (from UniProt P57737) NT-CRIB S>A; P>A (… > …); residue numbers not printed, sequence (P57737 whole entry, change not shown): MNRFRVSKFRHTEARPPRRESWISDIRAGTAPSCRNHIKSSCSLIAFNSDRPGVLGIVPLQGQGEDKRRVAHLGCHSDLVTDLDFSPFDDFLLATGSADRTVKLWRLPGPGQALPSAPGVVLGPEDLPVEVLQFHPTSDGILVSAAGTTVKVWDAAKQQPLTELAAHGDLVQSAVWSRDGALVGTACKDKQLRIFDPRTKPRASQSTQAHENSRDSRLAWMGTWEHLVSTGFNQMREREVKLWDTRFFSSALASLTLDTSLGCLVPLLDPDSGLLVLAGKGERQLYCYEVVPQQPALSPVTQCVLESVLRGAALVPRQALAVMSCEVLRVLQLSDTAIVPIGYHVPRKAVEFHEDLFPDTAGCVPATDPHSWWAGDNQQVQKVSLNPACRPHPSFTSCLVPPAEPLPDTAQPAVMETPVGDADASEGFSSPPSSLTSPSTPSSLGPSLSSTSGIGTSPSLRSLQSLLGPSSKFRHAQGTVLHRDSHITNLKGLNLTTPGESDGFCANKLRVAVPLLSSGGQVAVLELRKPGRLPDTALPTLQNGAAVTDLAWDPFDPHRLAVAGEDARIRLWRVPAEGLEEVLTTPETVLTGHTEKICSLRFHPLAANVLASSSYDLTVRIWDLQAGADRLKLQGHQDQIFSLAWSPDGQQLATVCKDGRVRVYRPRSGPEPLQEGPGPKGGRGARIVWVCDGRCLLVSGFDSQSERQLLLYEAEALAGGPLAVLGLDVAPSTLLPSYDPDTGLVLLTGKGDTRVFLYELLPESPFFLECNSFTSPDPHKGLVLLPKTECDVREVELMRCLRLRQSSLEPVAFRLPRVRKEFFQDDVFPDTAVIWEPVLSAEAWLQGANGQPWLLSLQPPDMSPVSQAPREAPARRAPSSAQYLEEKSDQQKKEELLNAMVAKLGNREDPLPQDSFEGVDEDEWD
GFP-CRN7 WT (human Coronin7, full length, GFP on its N-terminus) (from UniProt P57737) CT-CRIB L>A; T>A; P>A (… > …); residue numbers not printed, sequence (P57737 whole entry, change not shown): as above

Substance	percent of input bound [1]	response [2]	response [3]
GFP-CRN7 WT (human Coronin7, full length, GFP on its N-terminus) (from UniProt P57737 1-925) (natural protein)	30 % of input	–	–
GFP-CRN7 WT (human Coronin7, full length, GFP on its N-terminus) (from UniProt P57737) CT-CRIB L>A; T>A; P>A (… > …); residue numbers not printed	–	57 % of input	41 % of input
GFP-CRN7 WT (human Coronin7, full length, GFP on its N-terminus) (from UniProt P57737) NT-CRIB S>A; P>A (… > …); residue numbers not printed	–	67 % of input	32 % of input
